In doi:10.1101/2020.04.09.034405:

Legend:
[1] = biological target: ROBO1 fused to a fluorescent protein for FRET (ROBO1-mClover3) (human) (UniProt Q9Y6N7); assay: FRET or BRET
[2] = biological target: EPHA2 fused to a fluorescent protein for FRET (EPHA2-mRuby3; EPHA2-mClover3) (human) (UniProt P29317); assay: FRET or BRET

UniProt Q9Y6N7, sequence (Q9Y6N7 26-1651): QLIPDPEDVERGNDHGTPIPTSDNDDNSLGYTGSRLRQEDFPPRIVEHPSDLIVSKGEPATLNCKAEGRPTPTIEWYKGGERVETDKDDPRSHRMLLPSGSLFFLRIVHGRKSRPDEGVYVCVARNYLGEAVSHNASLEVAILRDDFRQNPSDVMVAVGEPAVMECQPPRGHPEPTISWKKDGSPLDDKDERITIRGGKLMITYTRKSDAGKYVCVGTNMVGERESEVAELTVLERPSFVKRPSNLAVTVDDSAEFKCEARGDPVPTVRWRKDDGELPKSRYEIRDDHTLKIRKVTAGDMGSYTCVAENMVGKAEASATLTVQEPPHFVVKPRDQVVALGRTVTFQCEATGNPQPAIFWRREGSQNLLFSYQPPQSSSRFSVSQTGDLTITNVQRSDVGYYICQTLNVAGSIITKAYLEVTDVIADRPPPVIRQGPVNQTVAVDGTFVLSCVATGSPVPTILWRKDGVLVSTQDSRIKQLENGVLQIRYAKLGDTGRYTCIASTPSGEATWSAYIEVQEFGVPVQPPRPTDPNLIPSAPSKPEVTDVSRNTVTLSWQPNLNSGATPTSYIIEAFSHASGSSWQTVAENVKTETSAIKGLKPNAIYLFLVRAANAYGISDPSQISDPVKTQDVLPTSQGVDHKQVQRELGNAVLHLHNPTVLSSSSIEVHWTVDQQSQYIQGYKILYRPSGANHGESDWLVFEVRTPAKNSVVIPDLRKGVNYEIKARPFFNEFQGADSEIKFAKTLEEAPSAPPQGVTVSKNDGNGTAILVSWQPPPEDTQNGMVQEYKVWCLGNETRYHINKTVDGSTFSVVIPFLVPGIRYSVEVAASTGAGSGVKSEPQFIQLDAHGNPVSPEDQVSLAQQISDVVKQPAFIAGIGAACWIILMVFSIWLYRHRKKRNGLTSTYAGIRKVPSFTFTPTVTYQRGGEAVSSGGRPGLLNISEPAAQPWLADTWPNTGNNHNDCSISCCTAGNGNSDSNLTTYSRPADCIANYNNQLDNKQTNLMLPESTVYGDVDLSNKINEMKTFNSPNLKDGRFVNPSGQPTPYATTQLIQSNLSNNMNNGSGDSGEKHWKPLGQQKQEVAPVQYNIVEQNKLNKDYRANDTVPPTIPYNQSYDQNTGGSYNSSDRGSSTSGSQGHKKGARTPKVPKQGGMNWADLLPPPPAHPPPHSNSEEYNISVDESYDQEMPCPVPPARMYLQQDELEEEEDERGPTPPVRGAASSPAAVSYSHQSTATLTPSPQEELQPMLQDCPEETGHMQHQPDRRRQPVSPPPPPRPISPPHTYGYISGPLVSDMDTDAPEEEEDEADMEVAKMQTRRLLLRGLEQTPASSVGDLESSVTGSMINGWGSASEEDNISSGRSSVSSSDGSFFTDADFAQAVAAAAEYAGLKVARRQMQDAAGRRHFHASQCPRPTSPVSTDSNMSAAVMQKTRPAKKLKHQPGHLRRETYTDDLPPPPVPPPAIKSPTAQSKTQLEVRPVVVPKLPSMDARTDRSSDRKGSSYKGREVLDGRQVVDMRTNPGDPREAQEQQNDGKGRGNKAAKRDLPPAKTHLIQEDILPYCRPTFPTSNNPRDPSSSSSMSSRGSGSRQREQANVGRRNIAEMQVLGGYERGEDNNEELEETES

A N-FRET [1] of 0.234 and a N-FRET [2] of 0.347 were found for “EPHA2 fused to a fluorescent protein for FRET (EPHA2-mRuby3; EPHA2-mClover3) (from UniProt P29317 24-976) (receptor)” in this work.
